In US20190315864A1 (SUZHOU ALPHAMAB, published 2019):
Residue numbers refer to the chain shown, from its start. Values belong to the binder of their own block, whether it stands above or below them.

Legend:
Fc protein = target: T1, Fc protein; assay: ELISA, Fc protein coated, 10 ng VHH/well
T1 construct: Counter-screen for the Fc part of CTLA4-Fc
Protocol: (§1) Plates were coated with Fc protein overnight at 4° C. and 10 ng of the heavy chain single domain antibody obtained in Example 2.1 was added to each well (control was a single domain antibody against other unrelated targets) and allowed to react for 1 hour at room temperature. After washing, an rabbit anti-human Fc antibody (purchased from Shanghai Pu Xin Biotechnology Co., Ltd.) was added and reacted for 1 hour at room temperature. After washing, goat anti-rabbit horseradish peroxidase labeled antibody (purchased from Shanghai Pu Xin Biotechnology Co., Ltd.) was added and reacted at room temperature for 1 hour. After washing, chromogenic agent was added and the absorbance was read at 405 nm.

CTLA4-Fc fusion protein [1] = target: T2, CTLA4-Fc fusion protein (human, biotinylated where used as CTLA4-Fc-Biotin (Examples 5.1-5.3)); assay: competitive ELISA, CTLA4-Fc coated, VHH series with 250 ng/mL CD80-Fc-Biotin
T2 construct: expressed in HEK293 cells; also called human CTLA4-Fc protein; CTLA4-Fc antigen protein
Protocol: (§2) SA-HRP (purchased from Sigma) was added and allowed to react for 1 hour at room temperature. After adding chromogenic solution, absorbance was read at 405 nm wavelength.

CTLA4-Fc fusion protein [2] = target: T2, CTLA4-Fc fusion protein; assay: ELISA OD ratio, value equals OD(CTLA4)/OD(blank)
Protocol: (§3) Plates were coated with CTLA4-Fc fusion protein overnight at 4° C. and 10 ng of the heavy chain single-domain antibody obtained in Example 2.1 (the control was a single domain antibody not binding to the CTLA4-Fc protein) was added to each well and allowed to react for 1 hour at room temperature. After washing, primary antibody anti-His tag antibody (purchased from Beijing Kangwei Century Biotechnology Co., Ltd.) was added and reacted for 1 hour at room temperature. After washing, a secondary goat anti-mouse horseradish peroxidase-labeled antibody (Yiqiao Shenzhou, Cat: SSA007200) was added and reacted for 1 hour at room temperature. After washing, chromogenic agent was added and the absorbance was read at 405 nm.

CTLA4-Fc fusion protein [3] = target: T2, CTLA4-Fc fusion protein; assay: ELISA, VHH coated 0.5 µg/well, dilution series of CTLA4-Fc, anti-human IgG-Fc HRP; antibody No. C27
Protocol: (§4) The plates were coated with the obtained CTLA4 heavy chain single-domain antibody at 0.5 μg/well overnight at 4° C. followed by addition of a gradient dilution series of CTLA4-Fc fusion protein and allowed to react for 1 hour at room temperature. After washing, goat anti-human IgG-Fc horseradish peroxidase labeled antibody (lakepharma) was added and allowed to react for 1 hour at room temperature. After washing, horseradish peroxidase c chromogenic solution was added and the absorbance was read at a wavelength of 405 nm.

CTLA4-Fc fusion protein [4] = target: T2, CTLA4-Fc fusion protein; assay: ELISA, CTLA4-Fc coated, 10 ng VHH/well
Protocol: as §3

Mouse CTLA4-Fc protein [5] = target: T3, Mouse CTLA4-Fc protein (mouse, biotinylated (mCTLA4-Fc-Biotin)); assay: ELISA, VHH coated 0.5 µg/well, mouse CTLA4-Fc (biotinylated), SA-HRP; blank 0.027
T3 construct: also called mCTLA4-Fc-Biotin; mouse CTLA4-Fc fusion protein
Protocol: (§5) Thereafter, SA-HRP (purchased from Sigma) was added, and the mixture was reacted at room temperature for 1.5 hours. After washing, chromogenic agent was added and the absorbance was read at 405 nm.

CTLA4-Fc fusion protein [6] = target: T2, CTLA4-Fc fusion protein; assay: ELISA OD ratio, value equals OD(CTLA4)/OD(Fc)
Protocol: as §3, §1

Mouse CTLA4-Fc protein [7] = target: T3, Mouse CTLA4-Fc protein; assay: ELISA, VHH coated 0.5 µg/well, mCTLA4-Fc-Biotin, SA-HRP
Protocol: as §5

CTLA4-Fc fusion protein [8] = target: T2, CTLA4-Fc fusion protein; assay: competitive ELISA: CD80-Fc-Biotin signal on coated CTLA4-Fc with 500 ng VHH/well; competitor CD80-Fc-Biotin
Protocol: as §2

CTLA4-Fc fusion protein [9] = target: T2, CTLA4-Fc fusion protein; assay: ELISA, VHH coated 0.5 µg/well, dilution series of CTLA4-Fc, anti-human IgG-Fc HRP; antibody No. C1
Protocol: as §4

CTLA4-Fc fusion protein [10] = target: T2, CTLA4-Fc fusion protein; assay: ELISA, VHH coated 0.5 µg/well, dilution series of CTLA4-Fc, anti-human IgG-Fc HRP; antibody No. 145 (printed as No. 14)
Protocol: as §4

CTLA4-Fc fusion protein [11] = target: T2, CTLA4-Fc fusion protein; assay: ELISA, VHH coated 0.5 µg/well, dilution series of CTLA4-Fc, anti-human IgG-Fc HRP; antibody No. 155
Protocol: as §4

OD (against Fc) (Fc protein): 0.049 OD405 | IC50 (CTLA4-Fc fusion protein [1]): ~0.731 µg/mL | ODa/ODb (CTLA4-Fc fusion protein [2]): 46.8 | EC50 (CTLA4-Fc fusion protein [3]): ~0.093 µg/mL | OD (against CTLA4) (CTLA4-Fc fusion protein [4]): 1.31 OD405 | OD (against mouse CTLA4) (Mouse CTLA4-Fc protein [5]): 0.021 OD405 | ODa/OD blank (CTLA4-Fc fusion protein [6]): 26.7 | binding result (Mouse CTLA4-Fc protein [7]): no binding | OD (CTLA4-Fc fusion protein [8]): 0.04 OD405
B1: CTLA4 heavy chain single domain antibody No. C27 (VHH)
VHH: QVQLQESGGGSVQAGGSLRLSCAASGYIYSAYCMGWFRQAPGKERVGVAAISIGGGSTYYADSVKGRFTISQDNAKNTLYLQMNSLKPEDTAMYYCAADVIPTETCLGGSWSGPFGYWGQGTQVTVSS
notes: Camel VHH expressed in E. coli (PET32b), nickel-purified

OD (against Fc) (Fc protein): 0.053 OD405 | IC50 (CTLA4-Fc fusion protein [1]): 0.852 µg/mL | ODa/ODb (CTLA4-Fc fusion protein [2]): 42.9 | EC50 (CTLA4-Fc fusion protein [9]): ~0.123 µg/mL | OD (against CTLA4) (CTLA4-Fc fusion protein [4]): 1.2 OD405 | OD (against mouse CTLA4) (Mouse CTLA4-Fc protein [5]): 0.042 OD405 | ODa/OD blank (CTLA4-Fc fusion protein [6]): 22.7 | binding result (Mouse CTLA4-Fc protein [7]): no binding | OD (CTLA4-Fc fusion protein [8]): 0.054 OD405
B2: CTLA4 heavy chain single domain antibody No. C1 (VHH)
VHH: B1 VHH with R19G, V46E, S52Y, I53L, N74I, Y95S
notes: Camel VHH expressed in E. coli (PET32b), nickel-purified, detected by anti-His tag antibody

OD (against Fc) (Fc protein): 0.065 OD405 | IC50 (CTLA4-Fc fusion protein [1]): ~1.95 µg/mL | ODa/ODb (CTLA4-Fc fusion protein [2]): 53.1 | OD (against CTLA4) (CTLA4-Fc fusion protein [4]): 1.49 OD405 | OD (against mouse CTLA4) (Mouse CTLA4-Fc protein [5]): 0.026 OD405 | ODa/OD blank (CTLA4-Fc fusion protein [6]): 22.9 | EC50 (CTLA4-Fc fusion protein [10]): ~0.05 µg/mL | binding result (Mouse CTLA4-Fc protein [7]): no binding | OD (CTLA4-Fc fusion protein [8]): 0.597 OD405
B3: CTLA4 heavy chain single domain antibody No. 145 (VHH)
VHH: QVQLQESGGGSVQAGGSLRLSCAASGYTYSSYSMGWFRQAAGKEREGVAAIDSDGSTSYADSVKGRFTISQDNAKNTLYLQMNSLEPEDTAMYYCAATAGWYAARHALSPLFFGYWGQGTQVTVSS
notes: as for B1

EC50 (CTLA4-Fc fusion protein [11]): ~0.013 µg/mL | OD (against Fc) (Fc protein): 0.051 OD405 | IC50 (CTLA4-Fc fusion protein [1]): ~4.69 µg/mL | ODa/ODb (CTLA4-Fc fusion protein [2]): 61.6 | OD (against CTLA4) (CTLA4-Fc fusion protein [4]): 1.72 OD405 | OD (against mouse CTLA4) (Mouse CTLA4-Fc protein [5]): 0.032 OD405 | ODa/OD blank (CTLA4-Fc fusion protein [6]): 33.8 | binding result (Mouse CTLA4-Fc protein [7]): no binding | OD (CTLA4-Fc fusion protein [8]): 0.746 OD405
B4: CTLA4 heavy chain single domain antibody No. 155 (VHH)
VHH: QVQLQESGGGPVQAGGSLRLSCAVSKYPYSGSCMGWFRQAPGKEREGVAAMFTGTGSTYYADSVKGRFTISQNVAKNTLDLQMNSLKPEDTAMYYCAVDLLPRSTRCLDYGLRTYNYWGQGTQVTVSS
notes: as for B1
